The target of assay [1] is T1, NRAS Q61K (RAS.Q61K; the sequence is shared by NRAS, KRAS and HRAS) peptide on HLA-A*01:01 (human).
T1 peptide: ILDTAGKEEY
Kind of assay: multimer staining.

In assay [2] the target is T2, NRAS wild-type (Q61) peptide on HLA-A*01:01 (human).
T2 peptide: ILDTAGQEEY
Kind of assay: cytokine release.

The target in assay [3] is T3, NRAS Q61R (RAS.Q61R) peptide on HLA-A*01:01 (human).
T3 peptide: ILDTAGREEY
Kind of assay: activation reporter or marker.

For assay [4], the target named is T4, HLA-A*01:01 (human).
T4 construct: whole, on cells; also called HLA allele A*01:01
Kind of assay: HLA-peptidomics (W6/32 immunoaffinity, LC-MS/MS) of HLA-A*01:01 mono-allelic 721.221 cells with a RAS.Q61K minigene.

Assay [5] has as its target T4, HLA-A*01:01. The assay is described as follows: HLA-peptidomics (targeted MS) of HLA-A*01:01 mono-allelic 721.221 cells with a RAS.Q61R minigene.

B1: NH2 (TCR)
alpha TRAV19 TRAJ39 CDR3: CALSETINNAGNMLTF
beta TRBV6-1 TRBJ1-1 CDR3: CAASQNTEAFF
Turning to B1, the binding result in assay [1] is “recognises”; in assay [2], “no recognition”.

B2: N17.3.2 (TCR)
alpha TRAV19 TRAJ17 CDR3: CALSESGDAAGNKLTF
beta TRBV6-1 TRBJ1-1 CDR3: CAEGENTEAFF
Regarding B2, the binding result in assay [1] is given as “recognises”; in assay [3], “no recognition”; in assay [2] it was “no recognition”.

In the case of ILDTAGKEEY (also called RAS.Q61K-derived neopeptide) [ILDTAGKEEY (SEQ ID NO: 1) neopeptide], the binding result in assay [4] was “binds”.

As to ILDTAGREEY (also called RAS.Q61R-derived neopeptide) [ILDTAGREEY (SEQ ID NO: 34) neopeptide], the binding result in assay [5] was “binds”.

B3: N135.1 (TCR)
alpha TRAV19 TRAJ39 CDR3: CALSESHNNAGNMLTF
beta TRBV6-1 TRBJ1-1 CDR3: CAASQNTEAFF
For the molecule B3, the binding result in assay [1] is reported as “recognises”; in assay [3], “no recognition”; in assay [2], “no recognition”.

B4: N17.2 (TCR)
alpha TRAV5 TRAJ9 CDR3: CAESSGGGFKTIF
beta TRBV6-6 TRBJ2-7 CDR3: CASSTPGPSAYEQYF
For the molecule B4, the binding result is on record as “recognises” in assay [1], “no recognition” in assay [3] and “no recognition” in assay [2].

The values are drawn from patent publication US20240180966A1 (YEDA RESEARCH AND DEVELOPMENT, published 2024).
